The values that follow are results of earlier work, collected in article PMC12020373.

Data set [1] concerns the target Cys215 (UniProt position 215, PVVVHCSAGIG).
Data set [2] has as its system Cys51.
The target of data set [3] is Cys40 (UniProt position 40, FSASWCPPCRG).
The subject of data set [4] is Cys85.
Data set [5] deals with Cys125 (UniProt position 126, PGDFGCDAQGA).
The target of data set [6] is Cys65 (UniProt position 66, ELKGTCKEDAM).
In data set [7] the target is His46 (UniProt position 128, TPETKHPKKGV).
Data set [8] deals with His8 (UniProt position 90, STKKLHKEPAT).
For data set [9], the target named is Cys283 (UniProt position 283, GYVLTCPANLG).
Data set [10] has as its target Cys126 (UniProt position 127, GDFGACAQGAM).
The target of data set [11] is Cys46 (UniProt position 47, TERPGCLDFKG).
For data set [12], the target named is Cys17 (UniProt position 18, VKHLKCKPADE).
Data set [13] has as its target Cys145 (UniProt position 145, PILIPCHRVVC).
Data set [14] has as its target Cys36 (UniProt position 37, YKQATCGDINT).
Data set [15] has as its target Cys106 (UniProt position 106, LIAAICAGPTA).
The target of data set [16] is Cys124 (UniProt position 125, HPGDFCADAQG).
For data set [17], the target named is Cys403 (UniProt position 403, RPVIHCRAGVG).
Data set [18] relates to Cys35.
Data set [19] addresses His124 (UniProt position 124, EWVKGHAGHPE).
In data set [20] the target is His127 (UniProt position 127, KGHAGHPENER).
Data set [21] has as its target His62 (UniProt position 62, EALKEHCEVIL).
Data set [22] addresses His83 (UniProt position 83, ITQWIHNWKKR).
Data set [23] has as its target Cys32 (UniProt position 33, FWAEWCGPCKM).
The target of data set [24] is Cys283 (UniProt position 283, GYVLTCPSNLG).
For data set [25], the target named is His31 (UniProt position 31, TIGIGHLLTKS).
Data set [26] concerns the target Cys29 (UniProt position 108, GSCGSCWAFGA).
In data set [27] the test system is Cys210.
The target of data set [28] is His113 (UniProt position 114, SEAIIHVLHSR).
Data set [29] deals with His116 (UniProt position 117, IIHVLHSRHPG).
Data set [30] has as its target His12 (UniProt position 13, WQLVLHVWAKV).
For data set [31], the target named is His36 (UniProt position 37, RLFKSHPETLE).
The target of data set [32] is His48 (UniProt position 49, FDRFKHLKTEA).
Data set [33] concerns the target His81 (UniProt position 82, LKKKGHHEAEL).
The target of data set [34] is Cys25 (UniProt position 158, GSCGSCWAFSA).
For data set [35], the target named is Cys78 (UniProt position 79, YIDKVCELKKK).
For data set [36], the system named is Cys28.
The target in data set [37] is Cys46 (UniProt position 47, DFTFVCPTELG).
The target of data set [38] is Cys88 (UniProt position 88, ADGSICLDILQ).
Data set [39] has as its target Cys32 (UniProt position 32, FSATWCGPCKM).
Data set [40] addresses His43 (UniProt position 43, IKPFFHSLSEK).
For data set [41], the target named is Cys25 (UniProt position 157, GSCGSCWAFSA).
In data set [42] the target is His113 (UniProt position 114, SDAIIHVLHSK).
The target in data set [43] is His116 (UniProt position 117, IIHVLHSKHPG).
Data set [44] addresses His119 (UniProt position 120, VLHSKHPGDFG).
For data set [45], the target named is His36 (UniProt position 37, RLFTGHPETLE).

What is called pKa is the pH at which an ionisable group is half protonated. “protein-tyrosine phosphatase 1B / PTP1 (Homo sapiens for the listed structure; the pKa source title says only 'mammalian' PTP1)”: the pKa in data set [1] was 5.6.

Take “methionine sulfoxide reductase A E115Q (Mus musculus; E115Q)”: the pKa in data set [2] is given as 8.2.

In the case of “tryparedoxin (Trypanosoma brucei (inferred from PDB 1O73))”, in data set [3], the pKa is 7.2.

On to “ubiquitin-conjugating enzyme Ubc13 (PDB 1JBB) (Saccharomyces cerevisiae (inferred))”, for which the pKa in data set [4] was 11.1.

As to “myoglobin A125C (Physeter macrocephalus (sperm whale); A125C)”, the pKa in [5] is on record as 8.4.

On to “acyl-CoA-binding protein (PDB 1NTI) S65C (Bos taurus (inferred); S65C)”, for which, in data set [6], the pKa is reported as 9.0.

As to “staphylococcal nuclease (PDB 1EY0) (Staphylococcus aureus (inferred))”, the pKa in data set [7] is given as 5.86; in data set [8] it was 6.52.

Regarding “muscle creatine kinase S285A (Homo sapiens; S285A)”, the pKa in [9] is 6.7.

Turning to “myoglobin D126C (Physeter macrocephalus (sperm whale); D126C)”, the pKa in [10] was 8.1.

Turning to “acyl-CoA-binding protein (PDB 1NTI) M46C (Bos taurus (inferred); M46C)”, the pKa in data set [11] is 8.2.

With “acyl-CoA-binding protein (PDB 1NTI) T17C (Bos taurus (inferred); T17C)”, the pKa in [12] is on record as 9.8.

On to “O6-alkylguanine-DNA alkyltransferase (AGT/MGMT) (Homo sapiens)”, for which, in data set [13], the pKa is 5.3.

Regarding “acyl-CoA-binding protein (PDB 1NTI) V36C (Bos taurus (inferred); V36C)”, the pKa in data set [14] is given as 9.5.

As for DJ-1 (PARK7) (Homo sapiens), the pKa in data set [15] is listed as 5.4.

Regarding “myoglobin G124C (Physeter macrocephalus (sperm whale); G124C)”, the pKa in [16] is given as 6.5.

As for “protein tyrosine phosphatase YopH (Yersinia (species not stated; Y. enterocolitica for 1YPT to my knowledge))”, in [17], the pKa was 4.7.

In the case of “thiol-disulfide oxidoreductase ResA (Bacillus subtilis (inferred))”, the pKa in data set [18] is 8.8.

Consider ribonuclease HI (Escherichia coli), for which the pKa is listed as 7.1 in data set [19], 7.9 in data set [20], 7.0 in data set [21] and 5.5 in data set [22].

For the substance thioredoxin (Escherichia coli), the pKa in [23] is on record as 7.3.

Regarding muscle creatine kinase (Homo sapiens), the pKa in [24] is on record as 5.6.

Take “T4 lysozyme (PDB 2LZM) (Enterobacteria phage T4 (inferred))”: the pKa in data set [25] is 9.1.

Take cathepsin B (Rattus norvegicus): the pKa in data set [26] is 3.6.

Consider alpha1-antitrypsin (Homo sapiens), for which, in [27], the pKa is given as 6.9.

For “myoglobin (PDB 1A6K) (Physeter macrocephalus (sperm whale; inferred))”, the pKa in data set [28] is 5.51; in data set [29] it was 6.70; in data set [30], 6.49; in data set [31], 7.98; in data set [32], 5.55; in data set [33], 6.88.

For the substance papain (Carica papaya), the pKa in data set [34] is 3.3.

Turning to “acyl-CoA-binding protein (PDB 1NTI) E78C (Bos taurus (inferred); E78C)”, the pKa in [35] was 9.6.

Take “ubiquitin-conjugating enzyme UbcH10 (Homo sapiens)”: the pKa in data set [4] is on record as 10.9.

Take “methionine sulfoxide reductase A (MsrA) (Mus musculus)”: in [2], the pKa is listed as 7.2.

On to “thiol:disulfide interchange protein DsbA (Escherichia coli (inferred))”, for which the pKa in data set [36] is 3.3.

As for “alkyl hydroperoxide reductase C (peroxiredoxin AhpC) (Salmonella enterica serovar Typhimurium (inferred; article says only 'bacterial'))”, the pKa in data set [37] is 5.9.

Consider “ubiquitin-conjugating enzyme E2 (PDB 1JAS; HsUbc2b) (Homo sapiens (inferred))”, for which the pKa in data set [38] is 10.2.

Consider thioredoxin (Homo sapiens), for which the pKa is given as 6.3 in data set [39] and 5.5 in [40].

Regarding “caricain (papaya protease omega) (Carica papaya)”, in [41], the pKa is given as 2.9.

With “myoglobin (PDB 1DWR) (Equus caballus (horse; inferred))”, the pKa is on record as 5.87 in [42]; 6.79 in data set [43]; 6.56 in [44]; 7.8 in data set [45]; 6.94 in data set [33].
